Measurements from patent publication US20060292657A1, “Phex substrates and methods using same” (priority 2003, published 2006).

Columns and labels:
Assay in all cases: Kinetic parameters for hydrolysis of internally quenched fluorogenic peptides by secPHEX
Type in all cases: biochemical, human
Conditions in all cases: other: 37° C., 10 mM Bis-Tris buffer pH 5.5, 150 mM NaCl
[1] = substrate: NC(=O)CC[C@H](NC(=O)[C@H](CO)NC(=O)CNC(=O)[C@H](CO)NC(=O)[C@H](CC(=O)O)NC(=O)[C@H](CO)NC(=O)[C@H](CO)NC(=O)c1ccccc1N)C(=O)NCCNc1ccc([N+](=O)[O-])cc1[N+](=O)[O-]
In short: (§1)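 Purified human recombinant secPHEX hydrolysing internally quenched fluorogenic peptides at 37° C in 10 mM Bis-Tris pH 5.5, 150 mM NaCl; fluorescence (ex 320, em 420 nm) followed continuously, <5% substrate hydrolysed, inner-filter corrected. Km and kcat by non-linear regression; kcat/Km under [S]<<Km where applicable.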

[2] = substrate: Nc1ccccc1C(=O)NCC(=O)N[C@@H](Cc1ccccc1)C(=O)N[C@@H](CO)C(=O)N[C@@H](CC(=O)O)C(=O)N[C@@H](Cc1ccc(O)cc1)C(=O)N[C@@H](CCCCNc1ccc([N+](=O)[O-])cc1[N+](=O)[O-])C(=O)O
In short: as §1

[3] = substrate: CC(C)C[C@H](NC(=O)[C@H](Cc1c[nH]cn1)NC(=O)[C@@H](NC(=O)c1ccccc1N)[C@@H](C)O)C(=O)N[C@@H](CC(=O)O)C(=O)N[C@H](C(=O)N[C@@H](CCCCN)C(=O)N[C@@H](CCCCN)C(=O)N[C@@H](CCC(N)=O)C(=O)NCCNc1ccc([N+](=O)[O-])cc1[N+](=O)[O-])[C@@H](C)O
In short: as §1

B1: human recombinant secPHEX (Homo sapiens) (protein)
chain: SLQAKQEYCLKPECIEAAAAILSKVNLSVDPCDNFFRFACDGWISNNPIPEDMPSYGVYPWLRHNVDLKLKELLEKSISRRRDTEAIQKAKILYSSCMNEKAIEKADAKPLLHILRHSPFRWPVLESNIGPEGVWSERKFSLLQTLATFRGQYSNSVFIRLYVSPDDKASNEHILKLDQATLSLAVREDYLDNSTEAKSYRDALYKFMVDTAVLLGANSSRAEHDMKSVLRLEIKIAEIMIPHENRTSEAMYNKMNISELSAMIPQFDWLGYIKKVIDTRLYPHLKDISPSENVVVRVPQYFKDLFRILGSERKKTIANYLVWRMVYSRIPNLSRRFQYRWLEFSRVIQGTTTLLPQWDKCVNFIESALPYVVGKMFVDVYFQEDKKEMMEELVEGVRWAFIDMLEKENEWMDAGTKRKAKEKARAVLAKVGYPEFIMNDTHVNEDLKAIKFSEADYFGNVLQTRKYLAQSDFFWLRKAVPKTEWFTNPTTVNAFYSASTNQIRFPAGELQKPFFWGTEYPRSLSYGAIGVIVGHEFTHGFDNNGRKYDKNGNLDPWWSTESEEKFKEKTKCMINQYSNYYWKKAGLNVKGKRTLGENIADNGGLREAFRAYRKWINDRRQGLEEPLLPGITFTNNQLFFLSYAHVRCNSYRPEAAREQVQIGAHSPPQFRVNGAISNFEEFQKAFNCPPNSTMNRGMDSCRLW
notes: pure soluble form of PHEX (secPHEX); made in house
Km [1]: 31.6 µM
kcat [1]: 0.2 s⁻¹
kcat/Km [1]: 7100 M⁻¹ s⁻¹
Km [2]: 3.0 µM
kcat [2]: 0.5 s⁻¹
kcat/Km [2]: 166700 M⁻¹ s⁻¹
Km [3]: 15.0 µM
kcat [3]: 0.02 s⁻¹
kcat/Km [3]: 1300 M⁻¹ s⁻¹
